The values below come from the RNAGym collection of RNA variant scans (doi:10.1093/molbev/msab373).

The chains are these.
B1: Azoarcus group I ribozyme (parent)
chain: GUGCCUUGCGCCGGGAAACCACGCAAGGGAUGGUGUCAAAUUCGGCGAAACCUAAGCGCCCGCCCGGGCGUAUGGCAACGCCGAGCCAAGCUUCGGCGCCUGCGCCGAUGAAGGUGUAGAGACUAGACGGCACCCACCUAAGGCAAACGCUAUGGUGAAGGCAUAGUCCAGGGAGUGGCGAAAGUCACACAAACCGG

In the data set the parent is B1. Nature of the data set: reverse-splicing fitness (ratio to wild type); higher = more active; in vitro selection; Mg2+ level not given. The method, boiled down:
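An in vitro group I ribozyme library with randomized positions was T7-transcribed and gel-purified. In triplicate, 10 pmol RNA in EPPS pH 7.5 was reacted with 50 pmoles of a 30-nt RNA substrate for 1 h at 37 °C across several added MgCl2 levels (1–48 mM), then stopped with EDTA. Products were reverse transcribed from a substrate-complementary primer, PCR-amplified and sequenced (HiSeq 4000). Fitness is a variant's read proportion after selection over that before, normalised to wild type.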
As to C82A A111G A120G A145G C150A C169U U176A, the reverse-splicing fitness came out at 0.0192. Consider C82A A111G A120G A145G C150A C169U U176C, for which the reverse-splicing fitness turned out to be 0.0184.

Turning to C82A A111G A120G A145G C150U C169U U176C, the reverse-splicing fitness was found to be 0.0165.

C82A A111G A120G A145G C150U C169U U176G: the reverse-splicing fitness came to 0.00632.

For the variant C82A A111G A120G A145G C150U C169U U176A, the reverse-splicing fitness was found to be 0.0182.

Consider C82A A111G A120C U176C, for which the reverse-splicing fitness came to 0.032.

For the variant C82A A111G A120C U176G, the reverse-splicing fitness came to 0.00892. For C82A A111G A120C U176A, the reverse-splicing fitness is 0.0208. Consider C82A A111G A120G C150G U176A, for which the reverse-splicing fitness turned out to be 0.0058. The figure for C82A A111G A120G C150G U176G is 0.00346; for C82A A111G A120G C150G U176C it is 0.00974; for C82A A111G A120G A145C C150A C169A U176G it is 0.00578.

Turning to C82A A111G A120G A145C C150A C169A U176A, the reverse-splicing fitness was 0.0118. Consider C82A A111G A120G A145C C150A C169A U176C, for which the reverse-splicing fitness was determined as 0.00609. With C82A A111G A120G C150G C169A U176C, the reverse-splicing fitness is 0.0123.

Take C82A A111G A120G C150G C169A U176A: the reverse-splicing fitness is 0.0117.

Turning to C82A A111G A120G C150G C169A U176G, the reverse-splicing fitness worked out at 0.00672.

As to C82A A111G A120G A145G C150U C169G U176C, the reverse-splicing fitness amounted to 0.0176. The figure for C82A A111G A120G A145G C150U C169G U176A is 0.0157; for C82A A111G A120G A145G C150U C169G U176G it is 0.00529; for C82A A111G A120C A145U C169A it is 0.00859. For C82A A111G A120C A145U C169U, the reverse-splicing fitness stood at 0.0135. Take C82A A111G A120C A145U C169G: the reverse-splicing fitness was 0.00967.

As for C82A A111G A120G A145C C169A U176A, the reverse-splicing fitness came out at 0.0117. As to C82A A111G A120G A145C C169A U176C, the reverse-splicing fitness was determined as 0.00752. In the case of C82A A111G A120G A145C C169A U176G, the reverse-splicing fitness came to 0.00385. Consider C82A A111G A120G C150U C169G, for which the reverse-splicing fitness worked out at 0.0108.

Take C82A A111G A120G C150U C169A: the reverse-splicing fitness was found to be 0.00952. In the case of C82A A111G A120G C150U C169U, the reverse-splicing fitness turned out to be 0.0102. For C82A A111G A120G A145C C150G C169G U176A, the reverse-splicing fitness was 0.00955. C82A A111G A120G A145C C150G C169G U176C: the reverse-splicing fitness amounted to 0.00788.

Take C82A A111G A120G A145C C150G C169G U176G: the reverse-splicing fitness was 0.0049. For C82A A111G A120C C150A C169A, the reverse-splicing fitness was 0.0113. As for C82A A111G A120C C150A C169U, the reverse-splicing fitness was found to be 0.011.

Regarding C82A A111G A120C C150A C169G, the reverse-splicing fitness was 0.00973. The figure for C82A A111G A120G A145U C169A U176C is 0.0121; for C82A A111G A120G A145U C169A U176A it is 0.0117. On to C82A A111G A120G A145U C169A U176G, for which the reverse-splicing fitness was 0.0046. C82A A111G A120G A145G C150A C169U: the reverse-splicing fitness is 0.00938. With C82A A111G A120G A145G C150A C169A the figure was 0.0103. Regarding C82A A111G A120G A145G C150A C169G, the reverse-splicing fitness turned out to be 0.00854.

With C82A A111G A120G C150A C169G U176A, the reverse-splicing fitness came out at 0.0211. Take C82A A111G A120G C150A C169G U176G: the reverse-splicing fitness worked out at 0.00613.

Consider C82A A111G A120G C150A C169G U176C, for which the reverse-splicing fitness was 0.0245. Consider C82A A111G A120G A145C C150G C169U U176G, for which the reverse-splicing fitness came out at 0.00529. For C82A A111G A120G A145C C150G C169U U176C, the reverse-splicing fitness was 0.0141. The figure for C82A A111G A120G A145C C150G C169U U176A is 0.0129; for C82A A111G A120G C169G it is 0.0125; for C82A A111G A120G C169A it is 0.0105. As to C82A A111G A120G A145G C150G C169A U176G, the reverse-splicing fitness was 0.00875. For C82A A111G A120G A145G C150G C169A U176A, the reverse-splicing fitness was found to be 0.0139. The figure for C82A A111G A120G A145G C150G C169A U176C is 0.0131; for C82A A111G A120G C150A C169A U176G it is 0.00588; for C82A A111G A120G C150A C169A U176C it is 0.0184. The figure for C82A A111G A120G C150A C169A U176A is 0.0228.

For the variant C82A A111G A120G A145U C150A C169A U176A, the reverse-splicing fitness came to 0.0161. For C82A A111G A120G A145U C150A C169A U176C, the reverse-splicing fitness stood at 0.0121. The figure for C82A A111G A120G A145U C150A C169A U176G is 0.00585; for C82A A111G A120C C150U C169U it is 0.0116. With C82A A111G A120C C150U C169G, the reverse-splicing fitness came to 0.00852. With C82A A111G A120C C150U C169A the figure was 0.00986; with C82A A111G A120G A145G C150U U176G, 0.00788; with C82A A111G A120G A145G C150U U176A, 0.00945. As to C82A A111G A120G A145G C150U U176C, the reverse-splicing fitness is 0.0182. Turning to C82A A111G A120G A145U C150G C169G U176A, the reverse-splicing fitness amounted to 0.00739. As to C82A A111G A120G A145U C150G C169G U176C, the reverse-splicing fitness was found to be 0.00461. As to C82A A111G A120G A145U C150G C169G U176G, the reverse-splicing fitness was 0.00446.

Turning to C82A A111G A120G A145G C150G U176A, the reverse-splicing fitness was found to be 0.00684. As to C82A A111G A120G A145G C150G U176G, the reverse-splicing fitness was 0.00568. Take C82A A111G A120G A145G C150G U176C: the reverse-splicing fitness came out at 0.00999.

Take C82A A111G A120C C150A: the reverse-splicing fitness was 0.0162. The figure for C82A A111G A120C C150U is 0.0279; for C82A A111G A120C C150G it is 0.0106.

C82A A111G A120G A145U C150U C169G: the reverse-splicing fitness came to 0.0104.

C82A A111G A120G A145U C150U C169A: the reverse-splicing fitness worked out at 0.0103.

C82A A111G A120G A145U C150U C169U: the reverse-splicing fitness was determined as 0.00852. C82A A111G A120G C150U U176G: the reverse-splicing fitness is 0.00781. For the variant C82A A111G A120G C150U U176A, the reverse-splicing fitness stood at 0.0108. Consider C82A A111G A120G C150U U176C, for which the reverse-splicing fitness turned out to be 0.0156. With C82A A111G A120C A145U U176C the figure was 0.0247; with C82A A111G A120C A145U U176G, 0.00629. With C82A A111G A120C A145U U176A, the reverse-splicing fitness worked out at 0.0171. In the case of C82A A111G A120C C169A U176G, the reverse-splicing fitness came out at 0.00575.
